For 2 substances, FRET efficiency results are on record in paper PMC11855606.

For assay [1], the target named is growth hormone receptor a (ghra) of Cynoglossus semilaevis, mScarlet-I fusion (pcDNA3.1-S-ghra) (Cynoglossus semilaevis). The assay is described as follows: FRET or BRET; acceptor bleaching FRET in HEK 293T cells co-transfected with the mNeonGreen-ligand and mScarlet-I-receptor plasmids at a 1:2 ratio, 48 h after transfection, Nikon A1R HD25 confocal microscope; FRETeff = (Dpost - Dpre)/Dpost. On the technique in general: Bioluminescence resonance energy transfer reports proximity on the nanometre scale.

Assay [2] has as its target growth hormone receptor b (ghrb) of Cynoglossus semilaevis, mScarlet-I fusion (pcDNA3.1-S-ghrb) (Cynoglossus semilaevis). The description is as above.

Chain of growth hormone receptor a (ghra) of Cynoglossus semilaevis, mScarlet-I fusion (pcDNA3.1-S-ghra) (Cynoglossus semilaevis) (main, as listed by the source): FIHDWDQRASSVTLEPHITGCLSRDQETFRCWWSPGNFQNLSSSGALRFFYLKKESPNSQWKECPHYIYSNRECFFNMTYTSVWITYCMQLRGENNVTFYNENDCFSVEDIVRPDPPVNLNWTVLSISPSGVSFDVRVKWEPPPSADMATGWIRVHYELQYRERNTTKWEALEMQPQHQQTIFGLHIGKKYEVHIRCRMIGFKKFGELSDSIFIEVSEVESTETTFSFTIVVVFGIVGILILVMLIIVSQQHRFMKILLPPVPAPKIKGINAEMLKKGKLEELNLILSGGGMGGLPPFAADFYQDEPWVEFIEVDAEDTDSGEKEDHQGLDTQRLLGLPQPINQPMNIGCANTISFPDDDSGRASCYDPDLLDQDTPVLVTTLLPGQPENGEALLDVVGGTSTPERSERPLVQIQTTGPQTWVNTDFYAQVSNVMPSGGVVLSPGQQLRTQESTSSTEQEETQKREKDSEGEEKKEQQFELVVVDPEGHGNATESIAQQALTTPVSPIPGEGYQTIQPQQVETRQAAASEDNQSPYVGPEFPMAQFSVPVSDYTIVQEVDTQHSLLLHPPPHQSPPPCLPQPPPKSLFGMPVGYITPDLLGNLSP
Chain of growth hormone receptor b (ghrb) of Cynoglossus semilaevis, mScarlet-I fusion (pcDNA3.1-S-ghrb) (Cynoglossus semilaevis) (main, as listed by the source): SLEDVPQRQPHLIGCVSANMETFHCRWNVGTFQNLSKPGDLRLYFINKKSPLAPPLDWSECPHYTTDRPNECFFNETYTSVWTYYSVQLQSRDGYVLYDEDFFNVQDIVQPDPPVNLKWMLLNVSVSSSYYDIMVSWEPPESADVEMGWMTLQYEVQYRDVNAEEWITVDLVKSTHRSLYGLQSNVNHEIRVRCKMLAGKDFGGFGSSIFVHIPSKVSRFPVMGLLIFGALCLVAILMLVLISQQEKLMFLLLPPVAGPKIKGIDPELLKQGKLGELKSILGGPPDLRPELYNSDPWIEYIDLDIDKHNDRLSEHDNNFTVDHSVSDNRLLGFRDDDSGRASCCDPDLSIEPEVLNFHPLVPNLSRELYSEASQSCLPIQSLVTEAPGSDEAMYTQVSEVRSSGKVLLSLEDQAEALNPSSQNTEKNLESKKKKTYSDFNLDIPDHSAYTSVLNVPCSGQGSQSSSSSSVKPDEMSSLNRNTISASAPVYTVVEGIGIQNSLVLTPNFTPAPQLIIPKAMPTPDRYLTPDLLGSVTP

Take “somatolactin (sl) of Cynoglossus semilaevis, mNeonGreen fusion (pcDNA3.1-N-sl) (ligand)”: the FRET efficiency in assay [1] was found to be 0.0509.

In the case of “growth hormone (gh) of Cynoglossus semilaevis, mNeonGreen fusion (pcDNA3.1-N-gh) (ligand)”, the figures for the FRET efficiency in assay [2] and in assay [1] were 0.036 and 0.0534, respectively.
